Assay results taken from a protein production outcome set (Wang et al. 2014).

Assay: label from the status in PepcDB records

Sequence: MLSVSWEYNFSFKKLNVPSFSVCRMLCGKLQNPLDHKKDEASHVKHASQGDVPFSGPLQVSKSNSFAWAKREKDDVCVRVHNRSLSRGYIPSLSGHSPAFNGKSDVESKINKDEKEDKTDSRGEESYEMVKRSMLKQWRQLERPDSFGASDEYHSQELSLGLYQRDEMAKKMGNNLVRP
- protein production: failed

Sequence: MEYNVQDMIFQFIGGLGIFLFGIKYMGDGLQQAAGDRLRDILDRFTTNPLMGVLAGMLVTVLIQSSSGTTALTVGLVSAGFMTLRQAIGVIMGANIGTTVTAFIIGIKIGEYALPVMAVGAILLFFFKNKKVHSVGQVVFGFGMLFFGLELMSAGMKPLRSLESFQELTVSMSDNPILGIVVGTVFTLIVQSSSATIGILQELFGQGAIDLQAALPVLFGDNIGTTITAVLAAIGTSIAARRAALVHVIFNIIGTIIFTILLIPFTSLIQYFQTSLNLNPEMTIAFAHGTFNVTNTIIQFPFIAVLAWIVTKIIRGEDAAIDFKPQHLNPIFIEQSPAIALTEAQKEIIRMAEFSLHGLKEANQFLNTQDKKHANMATQLEGAINNLDKKITEYLVLLSEKPLSPTDSEKHSVLAGVVGDIERVGDHVENLVELVDFQISNRVSLSDEALAELNEMLELTISTLQDSVEALTNFDTELAQTVIAKERKIDQMERVLRKRHVLRLNERSCSGDASIIFVDMVSNLERIGDHAVNIADGVLGEQGKINLKQSL
- protein production: failed

Sequence: MNDRMDPPPPRIEDILPHRGSMLLLAHVDTWDDETLRASAHVDPTAWYADPEGAMPAWFGIELMAQAIAAHVGLLSMREGNPARPGVLLGSRKYEAHAPAFAPAQPLSIAVQEVLRSTEGHGAYACTIAAGGRDLAQAVIKVYQPTDFQAFIEGSFAS
- protein production: failed

Sequence: MKSNDTSFRRYLCSASPRLRPALLAMLTVVLLAGCATADKHGLSPQQRSASDLADSEEIDPAARERISHALGRDADEGALRDALKQQPNNIDAAIPLARALLARNCPNDALEVLDGVLLATPGDLRALNAKAVVLDHEGRHQEAQELYRQALAAEPANPMLRNNFGLSLALQGKMDAGDASAAPQAGSRKALARSR
- protein production: failed

Sequence: MFRDFRMSLLVAVICLGLAAWWGHTSSMGIWQALWLCLVLSVLEVSLSFDNAVVNAGVLKHMNAFWQKLFLTVGILIAVFGMRLVFPIVIVSVATGMGLVPVMQMALKEPDRYSQVLTDNYPSIAAFGGMFLLLVFLNFLFDQERKLHWLGPVERLVGKLGKADAMSVIVAVSVLLGTKLFLPDGIFQSVLFAGLGGILLYLLVGSVDALFEAEESEDGSMGPAKRSGIAAFLYLEVLDASFSFDGVIGAFAITRDVVIIMLGLAIGAMFVRSMTVYLVHKGTLDEFVFLEHGAHYAIGVLAIIMLVGTVYHVPEVLTGLIGVAFIAASVWSSIRYRKRHHIGPTEI
- protein production: failed

Sequence: MEALVVVHKVASEGGRRPKTTVSDESGSHSREKGKSFQVKDSPENNYATGKVDSLERSHFSSSYNQERRQSEEQRR
- protein production: failed

Sequence: MSQKGEAEGIARIRSAALFYIVAILITLVAVFAVFIPLIVSISSISSNLSNPNASSASAAAGGILSAVIGVIVVAVIVSIVILVFIILSFLRFRDGFSILQAIGRDVGIGKTGTTLILVGAILLIIPFLDIIGIILIFVGQILLGIGIYRIGEIYNNSLTKIGGILVAIPLIDITAFIGMIMTYVGVGQIQREFGMRPPLPPSSQIPSQQTGSGVLRGNGTADLNIYLQTQEQVVSAQILGTNYLTGLIVPNMLQPGFNNLTVNFNVPLNLMPNSIYVIRLNLASGRTLDVNVTFQP
- protein production: failed

Sequence: MIKVRVASRARAAEGIAQLDLVCAEGRDLPAFEAGAHIDLFLGNGLTRQYSLCSDPAERSFYRIAVLRELTSRGGSAYVHEALTEGATLEISPPRNLFALDETAEEHLLFAGGVGVTPILAMAKRLSALGRAFTFHYCARDRSRAAFLNELSTAPFTSAVRLSFDAEPDTRLDLDVALARPKPGRRLYVCGPGGFMTHVIDGALARGWSGDQIRKEHFAAAPLSAGQDQPFELVIASSGQIVTVAADQTAAQALEAAGVFVPVSCEQGVCGTCLTRVIDGQPDHRDAFQTDEERAANDQFTPCCSRARSPRLVLDL
- protein production: failed

Sequence: MVIRVYIASSSGSTAIKKKQQDVLGFLEANKIGFEEKDIAANEENRKWMRENVPENSRPATGYPLPPQIFNESQYRGDYDAFFEARENNAVYAFLGLTAPPGSKEAEV
- protein production: not failed

Sequence: SISNRDTNGMPFAKETLEQQQAVEKKNEILEMSYEIAKLLETGLDRETLQVAIELLEQGFDPYALASVIKELKRGNNQTTE
- protein production: failed

Sequence: MHKEENMSDLYLKLVNTPVGKTAAQSLGLPSPAPLKRLKRVDQPFIEGDVLIGAGNGARAIATLGSIVGASPATLHHATGPETLAESAKTSNKAQALDITGEVSGKFSALIFDASGLQKPDELRALYDFFHPTIRKLATNGRVLVIGQDPHTCRKAPQAAAQQALEGFVRAVGKEIGKKGATANLVWIAPNAENQLDSSVRFFLSPRSAYVSGQVVRIGKADEAKATNPVAPLAGKVALVTGASRGIGAAIAETLARDGATVIGLDIPPALEELQKVTGALKGKALACDITDEKAPKLIADFIEKETGGVDFVIHNAGITRDKTLGNMPEHFWDMTIAVNLTAEELIDEELAERKLMRENGRIVCISSISGIAGNFGQTNYSCAKSGVIGYVEAMARHLKNGITINAIAPGFIETQMTAAMPFTIREAGRRMNSLSQGGQPVDVAEAIAWYCNPASAGVNGNVVRVCGQSLIGK
- protein production: failed

Sequence: MKKGIFTALLFTVIVALYSLHLANGKCVYKSNISSLLLENIEALAADEDGSDDGEVVGGKIRCIDVGSLDCPLTHEKVKYIVRGYSL
- protein production: failed

Sequence: MFRIKQLAWAMGCVSLMSGCTLYPWYQNKAGQAVNVKPVMEVRHAIRSADALYQLGRYYQAKVDYAEAIAAYEKALEADPRHVEAHNGLGVAHCLLDRHELALQYFRKAIGMAPLAAHLHNNLGYAHLVHGQEAEAVSAFERALLLEPHNQRARRHLAAVYKKAGLHDKAAALTVAPSGAPVGATKAPPTAPIPTPAPGTPAGTPAGIPSAAISAISPPMAAAPGEKQKLSCSAAARLLQVTPGVFEFRMAETEAMTAMPSGKIIGRTAPPQDSGKFSGQDIRIEVSNGNGLPGMARQVSDFLQQNGFARARLTDRQPYQQALTEIHYRPGHSGVAEEISRLMPGGSGVPTVESYNLRRDIHVRVMLGKDAVRQVAHLESPQKVQIAQGTAGAVE
- protein production: failed

Sequence: MKASELRNYTDEELKNLLEEKKRQLMELRFQLAMGQLKNTSLIKLTKRDIARIKTILRERELGIRR
- protein production: not failed

Sequence: MGNAGESKKSNSDSAKGEEKASGSLTISGSSAMQPLVLAAAEKFMEENPDADIQVQAGGSGTGLSQVSEGAVQIGNSDVFAEEKEGIDAKALVDHQVAVVGMAAAVNPDAGVKDISKDELKKIFTGKIKNWKELGGKDQKITLVNRPDSSGTRATFVKYALDGAEPAEGITEDSSNTVKKIIADTPGAIGYLAFSYLTDDKVTALSIDGVKPEAKNVATGEYPIWAYQHSYTKGEATGLAKEFLDYLKSEDIQKSIVTDQGYIPVTDMKVTRDANGKQSLEHHHHHH
- protein production: failed

Sequence: MIGALRHACPGSRAAAFVLSGLQTMTNEVKSAVRVIQILEYFDTVRREAGVLEISRALGFPASSTAGILRSLQRLSYLVQDEQRLYRPTPRVTLLGSWIDPLLAHDGPLMALMSHLSKATGETIILALQVDAGARYIHIIPSTQRVRLHVNVGDVRPLLTSGTGRLFVSTMEPDQVRRAVFRHNALRGANEPEINLSTVTRDATQIRKNGYATSLDRLVPGVGIIAALLPEREGTRPMAVAVGGPSVTIRARTAELASLLREGIGQYLPHLGNAGDQS
- protein production: failed

Sequence: MFKNKLAVLFTCLSVFSFSAQSGSFDTVTLGSKGGIQDGNLTAFLIKSEADSNFVMLDAGSVVNGLIVSEQKGAFKDITVPDSSPYTKVGYLLKDKIKGYFISHAHLDHVAGLIISSPDDSKKPIYGLAATNKDLMKNYFNWSAWPNFGNKGEGFKLNKYNYVDLQPGVWSPIAETTMSVMSLPLSHSGGQSTVFILKDSEGDVFAYFGDTGPDEVEKSSAMKTAWSALAPFVKQGKLKGIIIEVSFTNETPDKSLFGHLTPNWLVKELSVLEDMNGKGSLNDLNVAISHIKYSLKNSEDPKVIIKKQLAEANDLGVNFIFPEQGDSLQF
- protein production: failed
